Assay results from patent publication US20210238260.
Positions count from the first letter of the chain named. In names and notes the source's numbering stands.

What was measured:
[1] = target: T1, Antithrombin III (plasma purified human AT-III, Molecular Innovations); test: AT-III/UFH inhibition, standard assay (35 nM-0 nM AT-III); 999 nM is the assigned lower limit for less than 10% inhibition
[2] = target: antithrombin III (plasma purified human AT-III), used as the AT-III/unfractionated heparin complex; test: K0.5 ratio to Catalyst Biosciences WT FIXa, AT-III/UFH inhibition assay (from lower-limit K0.5)
[3] = target: T1, Antithrombin III (plasma purified human …); test: same assay; ratio of the lower-limit K0.5 to recombinant wild-type FIXa (Catalyst Biosciences WT)
[4] = target: plasma purified human AT-III (Molecular Innovations), in complex with low molecular weight heparin
[5] = target: T2, plasma purified human antithrombin III (AT-III), in complex with unfractionated heparin; test: K0.5 of variant over K0.5 of Catalyst Biosciences WT FIXa; AT-III/UFH inhibition assay
[6] = target: T1, Antithrombin III (plasma purified human …); test: AT-III/UFH inhibition, expanded sensitivity assay (1000 nM-0 nM and 5000-0 nM AT-III); assigned lower limit for less than 10% inhibition
[7] = target: plasma purified human antithrombin III (AT-III), in complex with unfractionated heparin (UFH); test: ratio of K0.5 for AT-III/UFH inhibition, variant over Catalyst Biosciences WT FIXa; calculated from the lower-limit K0.5
[8] = target: T2, plasma purified human antithrombin III …; test: K0.5 of variant over K0.5 of Catalyst Biosciences WT FIXa; AT-III/UFH inhibition assay; from lower limit K0.5
[9] = target: plasma purified human AT-III (antithrombin III); test: same assay; ratio to K0.5 of Catalyst Biosciences WT FIXa; from lower limit value
[10] = target: plasma purified human AT-III (antithrombin III); test: same assay; ratio to K0.5 of Catalyst Biosciences WT FIXa

Factor X (FX), P00742, sequence (P00742 whole entry, looked up): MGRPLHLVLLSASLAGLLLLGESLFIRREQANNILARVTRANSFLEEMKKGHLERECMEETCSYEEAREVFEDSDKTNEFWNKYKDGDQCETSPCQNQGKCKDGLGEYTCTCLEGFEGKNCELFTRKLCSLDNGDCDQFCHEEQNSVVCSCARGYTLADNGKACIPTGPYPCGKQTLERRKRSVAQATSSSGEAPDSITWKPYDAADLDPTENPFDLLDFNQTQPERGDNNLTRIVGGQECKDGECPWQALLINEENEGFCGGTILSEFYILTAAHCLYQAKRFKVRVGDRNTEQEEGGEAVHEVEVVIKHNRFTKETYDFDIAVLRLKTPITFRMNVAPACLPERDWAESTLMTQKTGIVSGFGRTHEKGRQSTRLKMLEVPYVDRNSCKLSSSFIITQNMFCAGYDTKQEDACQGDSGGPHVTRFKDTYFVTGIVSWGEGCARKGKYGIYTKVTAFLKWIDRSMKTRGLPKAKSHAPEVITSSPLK
Factor X, P00742, sequence (P00742 whole entry, looked up): as above

B1: FIXa-K293A/R338A/R403A (protein)
chain 1: YNSGKLEEFVQGNLERECMEEKCSFEEAREVFENTERTTEFWKQYVDGDQCESNPCLNGGSCKDDINSYECWCPFGFEGKNCELDVTCNIKNGRCEQFCKNSADNKVVCSCTEGYRLAENQKSCEPAVPFPCGRVSVSQTSKLTR
chain 2: VVGGEDAKPGQFPWQVVLNGKVDAFCGGSIVNEKWIVTAAHCVETGVKITVVAGEHNIEETEHTEQKRNVIRIIPHHNYNAAINKYNHDIALLELDEPLVLNSYVTPICIADAEYTNIFLKFGSGYVSGWGRVFHKGRSALVLQYLRVPLVDRATCLASTKFTIYNNMFCAGFHEGGRDSCQGDSGGPHVTEVEGTSFLTGIISWGEECAMKGKYGIYTKVSAYVNWIKEKTKLT
With B1 the K0.5 [1] was > 999 nM, the K0.5-mut/K0.5-wt [2] was > 51.7 fold and the K0.5-mut/K0.5-wt [3] was > 51.7. The K0.5 [4] was 497 nM, the K0.5-mut/K0.5-wt [4] was 16.9 fold and the KM (Factor X, P00742) was 0.0654 µM. For the same protein, the “% of WT kcat/KM” value (Factor X (FX), P00742) was 55%, the kcat (Factor X (FX), P00742) was 1.6 s⁻¹ and the kcat/KM (Factor X (FX), P00742) was 2.5e+07 M⁻¹ s⁻¹.

B2: FIXa A103N/N105S/R318Y/R338E/R403E/E410N (protein)
chain 1: B1 chain 1 with A103N, N105S
chain 2: B1 chain 2 with A113K, R138Y, A158E, A223E, E230N
B2 was tested, and the K0.5-mut/K0.5-wt [5] was 475 and the KM (Factor X (FX), P00742) was 0.0447 µM.

B3: FIXa-R318Y/R338E/R403E (protein)
chain 1: B1 chain 1
chain 2: B1 chain 2 with A113K, R138Y, A158E, A223E
In the case of B3, the K0.5 [6] is reported as > 10 µM, the K0.5-mut/K0.5-wt [2] is reported as > 517 fold and the K0.5-mut/K0.5-wt [3] is reported as > 517. It also gave a KM (Factor X, P00742) of 0.0537 µM.

B4: FIXa-R318Y/R338E/T343R/R403E/E410N (protein)
chain 1: B1 chain 1
chain 2: B1 chain 2 with A113K, R138Y, A158E, T163R, A223E, E230N
For B4, the K0.5-mut/K0.5-wt [7] was > 517 fold, the “% of WT kcat/KM” value (Factor X, P00742) was 1217% and the kcat (Factor X, P00742) was 11.8 s⁻¹. The kcat/KM (Factor X, P00742) was 5.4e+08 M⁻¹ s⁻¹, the KM (Factor X (FX), P00742) was 0.0223 µM and the “catalytic activity (kcat/KM) for activation of FX” value (Factor X (FX), P00742) was “displayed some of the greatest increases in catalytic activity”. It also gave a kcat of FX activation by FIXa (Xase complex with FVIIIa, PC/PS vesicles, Ca2+) (Factor X (FX), P00742) of 9.7 s⁻¹.

B5: FIXa D104N/K106S/Y155F/R318Y/R338E/R403E/E410N (protein)
chain 1: B1 chain 1 with D104N, K106S
chain 2: B1 chain 2 with A113K, R138Y, A158E, A223E, E230N
With B5 the K0.5-mut/K0.5-wt [8] was > 517 and the KM (Factor X (FX), P00742) was 0.048 µM.

B6: FIXa D203N/F205T/R318Y/E410N (protein)
chain 1: B1 chain 1
chain 2: B1 chain 2 with D23N, F25T, A113K, R138Y, A158R, A223R, E230N
Protein B6 has a K0.5-mut/K0.5-wt [5] of 66.2 and a KM (Factor X (FX), P00742) of 0.0457 µM.

B7: FIXa-K293E/R338E/R403E (protein)
chain 1: B1 chain 1
chain 2: B1 chain 2 with A113E, A158E, A223E
For B7, the K0.5 [1] was > 999 nM, the K0.5-mut/K0.5-wt [2] was > 51.7 fold and the K0.5-mut/K0.5-wt [3] was > 51.7. For the same protein, the K0.5 [4] was 418 nM, the K0.5-mut/K0.5-wt [4] was 14.2 fold and the KM (Factor X, P00742) was 0.05 µM. The “% of WT kcat/KM” value (Factor X (FX), P00742) was 37%, the kcat (Factor X (FX), P00742) was 0.8 s⁻¹ and the kcat/KM (Factor X (FX), P00742) was 1.7e+07 M⁻¹ s⁻¹.

B8: FIXa Y155F/R318Y/R338E/R403E/E410N (protein)
chain 1: B1 chain 1
chain 2: B1 chain 2 with A113K, R138Y, A158E, A223E, E230N
With B8 the K0.5-mut/K0.5-wt [8] was > 517 and the KM (Factor X (FX), P00742) was 0.0304 µM.

B9: FIXa-D104N/K106S/Y155F/R318Y/R338E/R403E/E410N (protein)
chain 1: B1 chain 1 with D104N, K106S
chain 2: B1 chain 2 with A113K, R138Y, A158E, A223E, E230N
In the case of B9, the K0.5-mut/K0.5-wt [9] is reported as > 517, the KM (Factor X, P00742) is reported as 0.048 µM and the kcat (Factor X (FX), P00742) is reported as 8.5 s⁻¹.

B10: FIXa-D203N/F205T/R318Y/E410N (protein)
chain 1: B1 chain 1
chain 2: B1 chain 2 with D23N, F25T, A113K, R138Y, A158R, A223R, E230N
With B10 the K0.5-mut/K0.5-wt [10] was 66.2, the KM (Factor X, P00742) was 0.0457 µM and the kcat (Factor X (FX), P00742) was 1.6 s⁻¹.

B11: FIXa-A103N/N105S/R318Y/R338E/R403E/E410N (protein)
chain 1: B1 chain 1 with A103N, N105S
chain 2: B1 chain 2 with A113K, R138Y, A158E, A223E, E230N
Protein B11 has a K0.5-mut/K0.5-wt [10] of 475, a KM (Factor X, P00742) of 0.0447 µM and a kcat (Factor X (FX), P00742) of 5.4 s⁻¹.

B12: FIXa A103N/N105S/Y155F/R318Y/R338E/R403E/E410N (protein)
chain 1: B1 chain 1 with A103N, N105S
chain 2: B1 chain 2 with A113K, R138Y, A158E, A223E, E230N
B12 was tested, and the K0.5-mut/K0.5-wt [8] was > 517 and the KM (Factor X (FX), P00742) was 0.0507 µM.

B13: FIXa D104N/K106S/R318Y/R338E/R403E/E410N (protein)
chain 1: B1 chain 1 with D104N, K106S
chain 2: B1 chain 2 with A113K, R138Y, A158E, A223E, E230N
B13 was tested, and the K0.5-mut/K0.5-wt [8] was > 517 and the KM (Factor X (FX), P00742) was 0.0385 µM.
